# ± gives the uncertainty stated by the source.
# Assay: protein stability index of a GFP-peptide fusion (yeast GPS) (PSI 1-4); higher = more stable; sorted into four equal gates, so the index is relative within each strain
# Summary of the method: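 The protein stability index of a peptide was calculated by multiplying its read frequency in each gate by that gate's number and adding the products. The peptides were tiled 17-residue stretches of yeast proteins, fused downstream of GFP on a Cherry-expressing plasmid and carried in yeast as a pooled library. Mid-log cultures in leucine-free medium were sorted into four equal gates by GFP/Cherry ratio, and each gate's plasmids were PCR-amplified and Illumina-sequenced.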
Sequence,protein stability index (doa10∆),protein stability index (pdr5∆),protein stability index (ubr1∆),protein stability index (san1∆)
VTNIRRIIQDNISPRLV [RRP46],2.3 ± 0.09,2.63 ± 0.1,2.23 ± 0.074,
LEEKKKRPNNKTLEKLE [IRR1],3.55 ± 0.14,3.43 ± 0.1,3.27 ± 0.13,3.39 ± 0.092
DSTIGNSKVDMKYDIFA [IRR1],2.82 ± 0.071,2.78 ± 0.082,2.88 ± 0.06,2.71 ± 0.078
RRTYNTLEDKFLLLAVN [ISW2],1.34 ± 0.084,1.67 ± 0.076,1.28 ± 0.071,1.18 ± 0.19
DLSADKPTSPFIDSICK [SRB8],2.12 ± 0.034,1.88 ± 0.039,1.93 ± 0.032,1.76 ± 0.048
FSDKVNALWILVDLVSH [ITC1],1.4 ± 0.079,1.23 ± 0.051,1.27 ± 0.045,1.35 ± 0.094
LYPSFKPIYKDTRFGGR [SSN2],3.17 ± 0.15,3.16 ± 0.087,3.41 ± 0.14,3.1 ± 0.047
DHVDGSSEFVSQDTKVI [RRP46],2.64 ± 0.056,2.24 ± 0.053,2.8 ± 0.053,2.44 ± 0.053
ARAAKIAPRPLDLLRPV [RPL13B],2.81 ± 0.07,3.04 ± 0.064,2.41 ± 0.043,3.07 ± 0.056
VRNKSYPVYTRLRTLCR [DIS3],2.65 ± 0.08,2.83 ± 0.072,2.46 ± 0.051,3.06 ± 0.11
TIFGGVDKNGAHLYMLE [PRE10],2.88 ± 0.076,2.66 ± 0.071,3.29 ± 0.075,2.87 ± 0.086
LREYLNLPEHIVPGTYI [RPS10A],3.08 ± 0.078,3.08 ± 0.064,2.75 ± 0.059,2.82 ± 0.056
LHKEQWQSGLKMYDYEE [RPN11],2.47 ± 0.081,2.8 ± 0.081,2.39 ± 0.053,2.28 ± 0.096
FDQAGKKVSRRNARAAR [RPL13B],3.08 ± 0.091,3.01 ± 0.14,3.29 ± 0.094,2.67 ± 0.28
PVVQVGIFIKILNDSLI [IRR1],1.5 ± 0.052,1.49 ± 0.046,1.97 ± 0.038,1.86 ± 0.067
ILDSLPSVIHSSVEMLL [YDL116W/NUP84],1.97 ± 0.055,1.44 ± 0.056,1.44 ± 0.041,1.39 ± 0.084
EGKRIAFGFVDRTLPHF [RPO21],2.89 ± 0.058,2.98 ± 0.054,3.13 ± 0.035,2.95 ± 0.048
VQASVTSSTHERKSKTY [RET1],2.6 ± 0.066,2.78 ± 0.079,2.97 ± 0.061,2.55 ± 0.056
ELNVKHVKQCQETCDKL [SMC2],3 ± 0.18,3.47 ± 0.2,3.31 ± 0.051,3.09 ± 0.082
QLYHLEQQKEELTDKLS [SMC1],2.23 ± 0.16,3.11 ± 0.081,3.14 ± 0.11,2.78 ± 0.15
ESFTEELSNELSRLSTA [MED1],3.25 ± 0.066,3.12 ± 0.066,3.21 ± 0.034,3.05 ± 0.053
FLERFDFYTRHHFTCEI [ITC1],,2.26 ± 0.097,2.61 ± 0.11,2.31 ± 0.16
LVHDVVYDFYGRHVATC [YGL100W/SEH1],1.46 ± 0.074,1.69 ± 0.06,1.38 ± 0.057,1.41 ± 0.12
EEAKEESDDDMGFGLFD [RPP1A],3.09 ± 0.053,3.15 ± 0.061,3.26 ± 0.045,3.22 ± 0.028
GAKPEEKKDDNSSKPAF [YJL041W/NSP1],3.29 ± 0.12,3.38 ± 0.14,2.86 ± 0.078,2.87 ± 0.082
LLPNSKNVENTKNLSIL [DSN1],2.59 ± 0.1,2.5 ± 0.11,2.83 ± 0.054,2.43 ± 0.12
RMIPPRMVRSIMWQLLD [SSN3],1.95 ± 0.18,1.68 ± 0.12,,1.56 ± 0.11

Sequence,protein stability index (doa10∆),protein stability index (pdr5∆),protein stability index (ubr1∆),protein stability index (san1∆)
LDTYLPEDLNSLYIYYL [SIR2],2.8 ± 0.068,2.45 ± 0.054,2.63 ± 0.063,2.54 ± 0.053
DATRVFVNGVWHGVHRN [RPB2],3.04 ± 0.093,3.35 ± 0.071,3.27 ± 0.066,3.28 ± 0.048
NAGPNSNIPNLLRNLES [YDL088C/ASM4],2.35 ± 0.043,1.96 ± 0.043,2.46 ± 0.031,2.23 ± 0.073
NDTLPDEISPELLSKYK [SNU114],2.9 ± 0.067,2.8 ± 0.072,2.86 ± 0.075,3.03 ± 0.064
SRTDAVRCKDCGHRILL [RPC10],2.62 ± 0.16,3.31 ± 0.19,3.02 ± 0.078,2.66 ± 0.13
MARYGATSTNPAKSASA [RPL17A],2.59 ± 0.056,2.91 ± 0.064,2.9 ± 0.048,2.31 ± 0.09
HLDNSKSVFSSAGLDSA [RPN1],2.58 ± 0.064,2.69 ± 0.043,2.15 ± 0.055,2.25 ± 0.063
FDKIIKIREDHINKIPS [SRB8],2.67 ± 0.12,2.95 ± 0.066,2.81 ± 0.062,2.96 ± 0.06
LSHYAKIRPWRTFRLNE [RPO31],2.86 ± 0.058,2.4 ± 0.055,2.5 ± 0.051,3.06 ± 0.073
VRTSATFRLPKTLKLAR [RPL25],2.84 ± 0.1,2.35 ± 0.12,2.72 ± 0.14,1.74 ± 0.26
NEDDLTVKLTEIVWTSS [RPO31],2.89 ± 0.093,3.04 ± 0.09,3.14 ± 0.059,3.01 ± 0.074
TANANKPAFSFGATTND [YJL041W/NSP1],3.01 ± 0.07,2.74 ± 0.051,2.88 ± 0.039,2.91 ± 0.047
SNIGNNSINNNNIKNGT [YDL088C/ASM4],2.72 ± 0.047,2.85 ± 0.057,2.65 ± 0.042,2.85 ± 0.047
WVFSYLRWFELKPKLYY [SIR3],1.93 ± 0.081,1.96 ± 0.071,2.49 ± 0.054,2.5 ± 0.19
LNAANYNIDANVIDTQR [ECM29],,2.37 ± 0.15,2.85 ± 0.12,3.18 ± 0.12
KIEGVATPQDAQFYLGK [RPL33A],2.78 ± 0.086,3.12 ± 0.07,3.25 ± 0.083,3.3 ± 0.063
ASRNVWSFYNGNVLIND [SNU114],2.87 ± 0.12,3.1 ± 0.082,2.99 ± 0.063,3.5 ± 0.053
DRAQNSYQPMYQRPMQV [SSN3],1.55 ± 0.047,1.73 ± 0.057,2.64 ± 0.041,1.55 ± 0.16
LKSQMDTSKALLNVSVN [SKI6],3.22 ± 0.13,2.92 ± 0.12,3.07 ± 0.053,3.23 ± 0.13
RADTDLAMNDDDFLSKK [SNF2],3.35 ± 0.094,3.59 ± 0.079,3.42 ± 0.067,3.22 ± 0.076
VKVSAAAGKANKQFAKF [RPS11A],2.64 ± 0.081,2.88 ± 0.074,2.93 ± 0.044,2.85 ± 0.065
AVATPKAEVTQLSNGIV [COR1],2.77 ± 0.074,3.11 ± 0.066,2.88 ± 0.045,3.12 ± 0.053
TKTNVDNNSKAEASFTF [YLR335W/NUP2],3.05 ± 0.063,3.24 ± 0.067,3.13 ± 0.046,3.07 ± 0.045
KKLLEVHDIFSKIFNES [CDC53],2.84 ± 0.072,2.71 ± 0.059,2.66 ± 0.05,2.77 ± 0.057
QDGGVTPYSNESGLVNA [RPO21],2.68 ± 0.055,2.69 ± 0.065,2.6 ± 0.068,2.63 ± 0.058
SKIFNESFPDDIPLAKA [CDC53],2.68 ± 0.056,2.89 ± 0.067,2.82 ± 0.037,2.55 ± 0.049

# From the supplement of paper PMC9732359
